Non-standard residues stand in square brackets, D forms with d. No end group written: not given here.

The target in the experiment is full length PCNA's binding partners. The experiment can be described thus: cell-based or functional assay.

B1: R9-L133A (peptide)
peptide: RRRRRRRRRCCLGIPEQEA
In turn, B1 displayed a % cancer cell death, U937 cells, 30 µM peptide, 24 h, flow cytometry of 7%.

B2: R9-L129A (peptide)
peptide: RRRRRRRRRCCLGIAEQEY
Regarding B2, the % cancer cell death, U937 cells, 30 µM peptide, 24 h, flow cytometry is 80%.

B3: R9-L130A (peptide)
peptide: RRRRRRRRRCCLGIPAQEY
Regarding B3, the % cancer cell death, U937 cells, 30 µM peptide, 24 h, flow cytometry worked out at 45%.

B4: R9-L126A (peptide)
peptide: RRRRRRRRRCCAGIPEQEY
With B4, the % cancer cell death, U937 cells, 30 µM peptide, 24 h, flow cytometry came out at 8%.

B5: R9-caPep (D-nonaarginine linked caPeptide, …) (peptide)
peptide: [dR][dR][dR][dR][dR][dR][dR][dR][dR]CCLGIPEQEY
modifications: cysteine pairing not given here
For the molecule B5, the % Dead Cells, MCF 7 (breast cancer) cells, 50 µM R9-caPeptide, 48 h, flow cytometry came out at 91.5%; the % Dead Cells, MCF 10A (non-malignant) breast cells, 50 µM R9-caPeptide, 48 h, flow cytometry is 18.2%; the % cancer cell death, U937 cells, 30 µM peptide, 24 h, flow cytometry is 43%; the apoptotic cells, U937 cells, 50 uM R9-caPep amounted to 93%.

B6: R9-L131A (peptide)
peptide: RRRRRRRRRCCLGIPEAEY
In turn, B6 gave a % cancer cell death, U937 cells, 30 µM peptide, 24 h, flow cytometry of 93%.

B7: R9-L132A (peptide)
peptide: RRRRRRRRRCCLGIPEQAY
With B7, the % cancer cell death, U937 cells, 30 µM peptide, 24 h, flow cytometry was found to be 88%.

B8: R9-L128A (peptide)
peptide: RRRRRRRRRCCLGAPEQEY
Molecule B8 yielded a % cancer cell death, U937 cells, 30 µM peptide, 24 h, flow cytometry of 21%.

B9: R9-L127A (peptide)
peptide: RRRRRRRRRCCLAIPEQEY
In the case of B9, the % cancer cell death, U937 cells, 30 µM peptide, 24 h, flow cytometry amounted to 47%.

These data come from patent US20110076342A1.
